Results reported in CN115368448A (HEFEI TIANGANG IMMUNOLOGY PHARMACEUTICAL CO LTD, dated 2022).

Tests used:
[1] = target: T1, CD27 on human peripheral blood CD8+ T cells (human, UniProt P26842 20-260); experiment: flow cytometry on human PBMC gated on CD8+ T cells, Alexa-647 anti-human Fc secondary
T1 construct: whole, on cells; also called 人外周血T细胞; 人外周血CD8+ T细胞
T1 sequence (looked up): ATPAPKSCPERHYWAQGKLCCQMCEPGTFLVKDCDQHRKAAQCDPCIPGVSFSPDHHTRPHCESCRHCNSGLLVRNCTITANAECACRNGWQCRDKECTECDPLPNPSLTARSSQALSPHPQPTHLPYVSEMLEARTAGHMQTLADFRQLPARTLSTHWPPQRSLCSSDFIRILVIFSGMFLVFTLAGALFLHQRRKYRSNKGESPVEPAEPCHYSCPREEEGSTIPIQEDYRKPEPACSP

[2] = target: T2, CD27蛋白 (SEQ ID NO:27), expressed on transduced cells (Homo sapiens (Human), UniProt P26842 20-260); experiment: flow cytometry on CHO-K1-CD27 cells, Alexa-647 anti-human Fc secondary
T2 construct: The entry includes the signal peptide; also called CHO-K1-CD27细胞; Jurkat-NFAT-lucia-CD27细胞
T2 sequence: T1 sequence (looked up)

[3] = target: T3, CD33 on human acute myeloid leukaemia HL-60 tumour cells (human, UniProt P20138 18-364); experiment: flow cytometry on HL-60 cells, Alexa-647 anti-human Fc secondary
T3 construct: whole, on cells; also called 人急性髓系细胞白血病HL-60肿瘤细胞; HL-60细胞

[4] = target: T4, CD33蛋白 (SEQ ID NO:29), expressed on transduced cells (Homo sapiens (Human), UniProt P20138 18-364); experiment: flow cytometry on CHO-K1-CD33 cells, Alexa-647 anti-human Fc secondary
T4 construct: The entry includes the signal peptide; also called CHO-K1-CD33细胞; A375-CD33细胞

Measured: binding result

T4 sequence (P20138 18-364 limits assumed): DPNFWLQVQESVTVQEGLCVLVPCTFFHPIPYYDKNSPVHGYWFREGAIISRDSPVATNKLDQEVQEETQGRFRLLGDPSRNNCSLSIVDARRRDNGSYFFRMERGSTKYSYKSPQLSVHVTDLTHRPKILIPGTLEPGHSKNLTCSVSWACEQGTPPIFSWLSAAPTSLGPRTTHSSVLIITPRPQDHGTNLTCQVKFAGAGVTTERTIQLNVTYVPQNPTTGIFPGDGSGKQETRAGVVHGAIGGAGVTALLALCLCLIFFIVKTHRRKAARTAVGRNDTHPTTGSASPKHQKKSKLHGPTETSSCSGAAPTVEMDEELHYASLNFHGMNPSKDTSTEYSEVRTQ
T3 sequence (P20138 18-364): as the sequence (P20138 18-364 limits assumed) above

B1: CD27×CD33双特异抗体 (bispecific antibody, human IgG1, kappa, L234A L235A)
chain: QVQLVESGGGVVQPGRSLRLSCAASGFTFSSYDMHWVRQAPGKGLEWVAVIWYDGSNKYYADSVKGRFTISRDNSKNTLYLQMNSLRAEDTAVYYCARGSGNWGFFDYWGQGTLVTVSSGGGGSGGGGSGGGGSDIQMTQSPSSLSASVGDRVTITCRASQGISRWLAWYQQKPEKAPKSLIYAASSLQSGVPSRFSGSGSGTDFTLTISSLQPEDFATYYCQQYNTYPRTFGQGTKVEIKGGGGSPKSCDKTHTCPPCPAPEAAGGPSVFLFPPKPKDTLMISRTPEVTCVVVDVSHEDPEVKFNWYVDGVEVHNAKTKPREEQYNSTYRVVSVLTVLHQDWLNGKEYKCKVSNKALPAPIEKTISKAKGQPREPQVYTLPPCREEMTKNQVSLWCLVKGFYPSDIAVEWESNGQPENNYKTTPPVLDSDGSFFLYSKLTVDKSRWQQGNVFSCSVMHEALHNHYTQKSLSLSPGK
heavy: EVQLVQSGAEVKKPGSSVKVSCKASGYTITDSNIHWVRQAPGQSLEWIGYIYPYNGGTDYNQKFKNRATLTVDNPTNTAYMELSSLRSEDTAFYYCVNGNPWLAYWGQGTLVTVSSASTKGPSVFPLAPSSKSTSGGTAALGCLVKDYFPEPVTVSWNSGALTSGVHTFPAVLQSSGLYSLSSVVTVPSSSLGTQTYICNVNHKPSNTKVDKKVEPKSCDKTHTCPPCPAPEAAGGPSVFLFPPKPKDTLMISRTPEVTCVVVDVSHEDPEVKFNWYVDGVEVHNAKTKPREEQYNSTYRVVSVLTVLHQDWLNGKEYKCKVSNKALPAPIEKTISKAKGQPREPQVCTLPPSREEMTKNQVSLSCAVKGFYPSDIAVEWESNGQPENNYKTTPPVLDSDGSFFLVSKLTVDKSRWQQGNVFSCSVMHEALHNHYTQKSLSLSPGK
light: DIQLTQSPSTLSASVGDRVTITCRASESLDNYGIRFLTWFQQKPGKAPKLLMYAASNQGSGVPSRFSGSGSGTEFTLTISSLQPDDFATYYCQQTKEVPWSFGQGTKVEVKRTVAAPSVFIFPPSDEQLKSGTASVVCLLNNFYPREAKVQWKVDNALQSGNSQESVTEQDSKDSTYSLSSTLTLSKADYEKHKVYACEVTHQGLSSPVTKSFNRGEC
notes: Three-chain knob-into-hole heterodimer (scFv-Fc knob arm against CD27, Fab-Fc hole arm against CD33), human IgG1 L234A/L235A constant regions; made in ExpiCHO cells, purified on Protein A; also called 抗体CD27×CD33; 双特异抗体CD27×CD33
binds: all assays above
